Experimental findings from IntAct's records for PubMed 31515488 are described below.

Sequences and labels used below:
B1: Tektin-4 (Homo sapiens), Q8WW24 (parent)
chain: MAQTVPPCELPCKEYDVARNTGAYTSSGLATASFRTSKYLLEEWFQNCYARYHQAFADRDQSERQRHESQQLATETQALAQRTQQDSTRTVGERLQDTHSWKSELQREMEALAAETNLLLAQKQRLERALDATEVPFSITTDNLQCRERREHPNLVRDHVETELLKEAELIRNIQELLKRTIMQAVSQIRLNREHKETCEMDWSDKMEAYNIDETCGRHHSQSTEVQAHPYSTTFQESASTPETRAKFTQDNLCRAQRERLASANLRVLVDCILRDTSEDLRLQCDAVNLAFGRRCEELEDARYKLHHHLHKTLREITDQEHNVAALKQAIKDKEAPLHVAQTRLYLRSHRPNMELCRDAAQFRLLSEVEELNMSLTALREKLLEAEQSLRNLEDIHMSLEKDIAAMTNSLFIDRQKCMAHRTRYPTILQLAGYQ
partner: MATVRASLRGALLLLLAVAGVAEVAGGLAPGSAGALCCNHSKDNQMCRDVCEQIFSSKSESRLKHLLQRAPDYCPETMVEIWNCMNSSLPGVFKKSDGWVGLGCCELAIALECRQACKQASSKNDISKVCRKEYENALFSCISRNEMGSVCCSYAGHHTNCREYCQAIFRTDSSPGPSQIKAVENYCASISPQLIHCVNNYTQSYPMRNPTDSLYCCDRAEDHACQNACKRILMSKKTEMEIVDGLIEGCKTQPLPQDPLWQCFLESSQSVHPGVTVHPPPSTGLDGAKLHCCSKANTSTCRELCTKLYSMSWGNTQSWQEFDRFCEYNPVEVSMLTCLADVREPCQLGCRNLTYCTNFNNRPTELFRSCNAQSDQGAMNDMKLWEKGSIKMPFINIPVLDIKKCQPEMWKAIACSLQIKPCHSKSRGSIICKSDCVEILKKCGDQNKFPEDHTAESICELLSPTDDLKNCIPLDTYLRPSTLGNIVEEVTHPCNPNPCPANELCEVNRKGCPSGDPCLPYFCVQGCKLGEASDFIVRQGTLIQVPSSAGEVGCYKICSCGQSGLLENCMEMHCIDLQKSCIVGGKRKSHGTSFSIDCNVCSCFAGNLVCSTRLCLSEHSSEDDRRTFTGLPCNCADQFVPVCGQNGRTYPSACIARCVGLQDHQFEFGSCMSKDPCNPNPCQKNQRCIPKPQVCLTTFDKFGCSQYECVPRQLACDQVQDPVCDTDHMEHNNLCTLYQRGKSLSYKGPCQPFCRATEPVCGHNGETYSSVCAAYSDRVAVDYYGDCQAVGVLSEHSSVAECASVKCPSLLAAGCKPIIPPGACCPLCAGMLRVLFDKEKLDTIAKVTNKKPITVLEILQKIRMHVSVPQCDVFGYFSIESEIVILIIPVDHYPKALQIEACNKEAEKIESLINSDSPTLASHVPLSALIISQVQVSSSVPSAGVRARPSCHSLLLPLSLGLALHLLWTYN
B2: Zinc finger protein 473 (Homo sapiens), Q8WTR7 (parent)
chain: MAEEFVTLKDVGMDFTLGDWEQLGLEQGDTFWDTALDNCQDLFLLDPPRPNLTSHPDGSEDLEPLAGGSPEATSPDVTETKNSPLMEDFFEEGFSQEIIEMLSKDGFWNSNFGEACIEDTWLDSLLGDPESLLRSDIATNGESPTECKSHELKRGLSPVSTVSTGEDSMVHNVSEKTLTPAKSKEYRGEFFSYSDHSQQDSVQEGEKPYQCSECGKSFSGSYRLTQHWITHTREKPTVHQECEQGFDRNASLSVYPKTHTGYKFYVCNEYGTTFSQSTYLWHQKTHTGEKPCKSQDSDHPPSHDTQPGEHQKTHTDSKSYNCNECGKAFTRIFHLTRHQKIHTRKRYECSKCQATFNLRKHLIQHQKTHAAKTTSECQECGKIFRHSSLLIEHQALHAGEEPYKCNERGKSFRHNSTLKIHQRVHSGEKPYKCSECGKAFHRHTHLNEHRRIHTGYRPHKCQECVRSFSRPSHLMRHQAIHTAEKPYSCAECKETFSDNNRLVQHQKMHTVKTPYECQECGERFICGSTLKCHESVHAREKQGFFVSGKILDQNPEQKEKCFKCNKCEKTFSCSKYLTQHERIHTRGVKPFECDQCGKAFGQSTRLIHHQRIHSRVRLYKWGEQGKAISSASLIKLQSFHTKEHPFKCNECGKTFSHSAHLSKHQLIHAGENPFKCSKCDRVFTQRNYLVQHERTHARKKPLVCNECGKTFRQSSCLSKHQRIHSGEKPYVCDYCGKAFGLSAELVRHQRIHTGEKPYVCQECGKAFTQSSCLSIHRRVHTGEKPYRCGECGKAFAQKANLTQHQRIHTGEKPYSCNVCGKAFVLSAHLNQHLRVHTQETLYQCQRCQKAFRCHSSLSRHQRVHNKQQYCL

The variants in one assay derive from B1. To be noted: with reck_human RECK.
For D403N, the “effect of a mutation on the interaction” value is given as “with no effect”.
With A80V, the “effect of a mutation on the interaction” value was “with no effect”.
On to R64W, for which the “effect of a mutation on the interaction” value was “with no effect”.
With C272S, the “effect of a mutation on the interaction” value is given as “with no effect”.
As to R82C, the “effect of a mutation on the interaction” value is “with no effect”.
On to S100G, for which the “effect of a mutation on the interaction” value is “with no effect”.
I404T: the “effect of a mutation on the interaction” value is on record as “disrupting interaction strength”.
With M374V, the “effect of a mutation on the interaction” value is reported as “with no effect”.
On the same count and under the same terms, the value for M374T was “with no effect”.

The variants in a further assay derive from B2. To be noted: with gpt2l_human GPATCH2L.
For S662A, the “effect of a mutation on the interaction” value is on record as “with no effect”.

The variants in another assay derive from B2. To be noted: with zn792_human ZNF792, Q3KQV3.
zn792_human ZNF792, Q3KQV3, sequence (Q3KQV3 whole entry): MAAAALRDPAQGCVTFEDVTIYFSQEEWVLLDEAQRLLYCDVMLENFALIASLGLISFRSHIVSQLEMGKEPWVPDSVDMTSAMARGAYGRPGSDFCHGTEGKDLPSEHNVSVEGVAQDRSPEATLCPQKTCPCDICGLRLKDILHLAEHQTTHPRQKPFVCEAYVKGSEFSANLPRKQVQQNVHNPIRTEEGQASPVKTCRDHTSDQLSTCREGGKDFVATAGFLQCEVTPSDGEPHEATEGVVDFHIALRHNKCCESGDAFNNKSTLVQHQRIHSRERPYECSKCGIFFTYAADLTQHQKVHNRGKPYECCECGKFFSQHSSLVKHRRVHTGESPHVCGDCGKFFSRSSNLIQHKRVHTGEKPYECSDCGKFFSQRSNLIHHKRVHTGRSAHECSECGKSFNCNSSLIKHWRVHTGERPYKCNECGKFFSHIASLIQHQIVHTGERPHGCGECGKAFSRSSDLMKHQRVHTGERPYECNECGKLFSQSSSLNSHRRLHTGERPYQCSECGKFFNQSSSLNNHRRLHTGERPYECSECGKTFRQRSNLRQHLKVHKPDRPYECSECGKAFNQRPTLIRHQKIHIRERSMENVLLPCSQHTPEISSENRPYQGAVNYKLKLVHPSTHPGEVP
Regarding S662A, the “effect of a mutation on the interaction” value is on record as “with no effect”.

Variants of B2 are the subject of the next assay. To be noted: with tri41_human TRIM41, Q8WV44.
In the case of S662A, the “effect of a mutation on the interaction” value is given as “with no effect”.

In the next assay the parent is B2. The note with it: with aen_human AEN.
Regarding S662A, the “effect of a mutation on the interaction” value is “with no effect”.
